Test results as given in patent US20260356956 (published 2026).

T1: mouse P-selectin (mouse, UniProt Q01102)
T1 chain: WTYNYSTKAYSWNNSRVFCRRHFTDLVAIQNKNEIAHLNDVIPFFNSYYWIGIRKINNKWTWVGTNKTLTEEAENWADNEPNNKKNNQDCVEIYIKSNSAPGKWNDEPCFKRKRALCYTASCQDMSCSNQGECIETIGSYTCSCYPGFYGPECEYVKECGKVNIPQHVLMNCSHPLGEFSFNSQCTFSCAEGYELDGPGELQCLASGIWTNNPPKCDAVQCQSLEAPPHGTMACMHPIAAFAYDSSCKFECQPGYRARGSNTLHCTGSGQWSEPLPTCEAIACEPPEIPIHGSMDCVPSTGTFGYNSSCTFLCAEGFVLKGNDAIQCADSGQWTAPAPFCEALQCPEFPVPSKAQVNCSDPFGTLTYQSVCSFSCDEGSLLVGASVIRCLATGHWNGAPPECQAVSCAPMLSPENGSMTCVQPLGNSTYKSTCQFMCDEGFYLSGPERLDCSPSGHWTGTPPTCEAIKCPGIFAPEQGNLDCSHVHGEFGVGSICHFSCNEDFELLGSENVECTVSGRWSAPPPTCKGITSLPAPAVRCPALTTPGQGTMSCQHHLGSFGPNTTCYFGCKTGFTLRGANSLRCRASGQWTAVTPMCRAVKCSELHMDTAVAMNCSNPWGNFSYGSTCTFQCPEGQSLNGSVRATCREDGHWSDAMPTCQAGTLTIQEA


Biological target: T1, mouse P-selectin
Assay: SPR, 25C

| Kd | Binder |
| --- | --- |
| 630 nM | NB.PSelscFv-Crry (2.3scFv-Crry, non-blocking) (antibody) MSVPTQVLGLLLLWLTDARCQIQLVLSGPELKKPGESVKISCKASGYTFTTYGMSWVKQAPGKGLKWMGWINTSSGVPTYADDFKGRFAFSLETSASTAYLQINNLKNEDTATYFCARGGGYYGAYYFYYWGQGTTLTVSSGGGGSGGGGSGGGGSDIQMTQSPASLSASVGETVTITCRTSDNINSYLAWYLQRQGKSPQLLVYNAKTLTEGVPSRFSGSGSGTQFSLKINSLQPEDFGSYYCQHHYGPPPTFGGGTKLEIKGGGGSGGGGSCPAPSQLPSAKPINLTDESMFPIGTYLLYECLPGYIKRQFSITCKQDSTWTSAEDKCIRKQCKTPSDPENGLVHVHTGIQFGSRINYTCNQGYRLIGSSSAVCVITDQSVDWDTEAPICEWIPCEIPPGIPNGDFFSSTREDFHYGMVVTYRCNTDARGKALFNLVGEPSLYCTSNDGEIGVWSGPPPQCIELNKCTPPPYVENAVMLSENRSLFSLRDIVEFRCHPGFIMKGASSVHCQSLNKWEPELPSCFKGVICRLPQEMSGFQKGLGMKKEYYYGENVTLECEDGYTLEGSSQSQCQSDGSWNPLLAKCVSRSIIEGRHHHHHH |
| 333 nM | B.PSelscFv-Crry (2.12scFv-Crry, blocking) (antibody) MPMGSLQPLATLYLLGMLVASVLAHHHHHHIEGREVKLVESGGGLVQPGSSMKLSCTTSGFTFSDYYMAWVRQVPEKGLEWVANINYDGSSAYYLDSFKSRFTISRDNEKNILYLQMSSLKSEDTATYYCARGDWFVYWGQGTLVTVSAGGGGSGGGGSGGGGSDIQMTQSPSSMSASLGERVTITCKASQDINSYLNWFQQKPGKSPKTLIFRANRLVDGVPSRFSGSGSGQDYSLTISSLEFEDVGIYYCLQYAEFPFTFGSGTKLEIKGGGGSGGGGSCPAPSQLPSAKPINLTDESMFPIGTYLLYECLPGYIKRQFSITCKQDSTWTSAEDKCIRKQCKTPSDPENGLVHVHTGIQFGSRINYTCNQGYRLIGSSSAVCVITDQSVDWDTEAPICEWIPCEIPPGIPNGDFFSSTREDFHYGMVVTYRCNTDARGKALFNLVGEPSLYCTSNDGEIGVWSGPPPQCIELNKCTPPPYVENAVMLSENRSLFSLRDIVEFRCHPGFIMKGASSVHCQSLNKWEPELPSCFKGVICRLPQEMSGFQKGLGMKKEYYYGENVTLECEDGYTLEGSSQSQCQSDGSWNPLLAKCVSRSIIEGRHHHHHH |
